Experimental findings from patent publication US20260125455A1 are described below.

The target of experiment [1] is C6Δ762: 1-762_10xHis (human). In words: ELISA, wells coated with the C6 construct, control mouse IgG; replicate 2.
The target of experiment [2] is C6Δ634: 1-634_10xHis (human). Described as above.
Experiment [3] concerns the target C6: 1-934_10xHis (human). The description is as above.
Experiment [4] has as its target C6Δ1-79: SP_79-934_10xHis (human). The experiment is described as above.
The target of experiment [5] is C6 no His (human) (UniProt P13671). In words: ELISA, wells coated with 'C6 no His', control mouse IgG; replicate 2.
The target of experiment [6] is C6Δ762: 1-762_10xHis (human). As to the kind of experiment: ELISA, wells coated with the C6 construct, control mouse IgG; replicate 1.
The target of experiment [7] is C6Δ634: 1-634_10xHis (human). The description is as above.
Experiment [8] addresses C6: 1-934_10xHis (human). The description is as above.
Experiment [9] concerns the target C6Δ1-79: SP_79-934_10xHis (human). The description is as above.
For experiment [10], the target named is human complement protein C6 (human) (UniProt P13671). As to the kind of experiment: ELISA, wells coated with 'C6 from Comptech', control mouse IgG; replicate 1.
For experiment [11] the target is unchanged. In words: ELISA, wells coated with 'C6 from Comptech', control mouse IgG; replicate 2.
Experiment [12] addresses purified FIM1-2 domains of C6 (human) (UniProt P13671). In words: ELISA, wells coated with FIM1-2_His, control mouse IgG; replicate 2.
The target of experiment [13] is C6 no His (human) (UniProt P13671). In words: ELISA, wells coated with 'C6 no His', control mouse IgG; replicate 1.
Experiment [14] addresses purified FIM1-2 domains of C6 (human) (UniProt P13671). As to the kind of experiment: ELISA, wells coated with FIM1-2_His, control mouse IgG; replicate 1.

C6Δ1-79: SP_79-934_10xHis (human), sequence (P13671 79-934, stated change not applied): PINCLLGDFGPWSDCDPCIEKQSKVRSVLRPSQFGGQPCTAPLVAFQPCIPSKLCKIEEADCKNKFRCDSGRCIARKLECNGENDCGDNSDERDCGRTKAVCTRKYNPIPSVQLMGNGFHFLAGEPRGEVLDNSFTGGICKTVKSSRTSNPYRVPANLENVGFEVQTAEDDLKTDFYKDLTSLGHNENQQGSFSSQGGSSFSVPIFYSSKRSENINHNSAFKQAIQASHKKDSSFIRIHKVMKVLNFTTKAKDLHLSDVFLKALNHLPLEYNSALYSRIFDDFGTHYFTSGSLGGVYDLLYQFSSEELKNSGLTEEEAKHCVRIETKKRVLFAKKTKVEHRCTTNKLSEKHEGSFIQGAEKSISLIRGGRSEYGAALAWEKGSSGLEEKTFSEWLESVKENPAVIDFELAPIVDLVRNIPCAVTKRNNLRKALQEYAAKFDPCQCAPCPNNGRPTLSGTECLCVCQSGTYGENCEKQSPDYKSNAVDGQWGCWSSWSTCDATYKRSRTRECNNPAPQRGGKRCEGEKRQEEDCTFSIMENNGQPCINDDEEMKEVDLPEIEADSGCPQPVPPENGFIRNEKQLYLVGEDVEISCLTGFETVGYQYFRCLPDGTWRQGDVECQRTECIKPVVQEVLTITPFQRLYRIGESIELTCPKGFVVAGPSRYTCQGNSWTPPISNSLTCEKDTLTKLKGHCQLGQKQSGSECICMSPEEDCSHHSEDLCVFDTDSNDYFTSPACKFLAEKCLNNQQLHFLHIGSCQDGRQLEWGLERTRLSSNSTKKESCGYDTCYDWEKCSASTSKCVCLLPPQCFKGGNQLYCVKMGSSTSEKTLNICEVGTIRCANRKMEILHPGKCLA
purified FIM1-2 domains of C6 (human), sequence (P13671 766-934 limits assumed): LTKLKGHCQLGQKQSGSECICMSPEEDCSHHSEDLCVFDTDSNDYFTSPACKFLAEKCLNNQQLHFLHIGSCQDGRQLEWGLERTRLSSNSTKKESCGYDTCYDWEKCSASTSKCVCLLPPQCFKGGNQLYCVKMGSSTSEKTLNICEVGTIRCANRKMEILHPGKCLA
C6Δ762: 1-762_10xHis (human), sequence (P13671 22-762, stated change not applied): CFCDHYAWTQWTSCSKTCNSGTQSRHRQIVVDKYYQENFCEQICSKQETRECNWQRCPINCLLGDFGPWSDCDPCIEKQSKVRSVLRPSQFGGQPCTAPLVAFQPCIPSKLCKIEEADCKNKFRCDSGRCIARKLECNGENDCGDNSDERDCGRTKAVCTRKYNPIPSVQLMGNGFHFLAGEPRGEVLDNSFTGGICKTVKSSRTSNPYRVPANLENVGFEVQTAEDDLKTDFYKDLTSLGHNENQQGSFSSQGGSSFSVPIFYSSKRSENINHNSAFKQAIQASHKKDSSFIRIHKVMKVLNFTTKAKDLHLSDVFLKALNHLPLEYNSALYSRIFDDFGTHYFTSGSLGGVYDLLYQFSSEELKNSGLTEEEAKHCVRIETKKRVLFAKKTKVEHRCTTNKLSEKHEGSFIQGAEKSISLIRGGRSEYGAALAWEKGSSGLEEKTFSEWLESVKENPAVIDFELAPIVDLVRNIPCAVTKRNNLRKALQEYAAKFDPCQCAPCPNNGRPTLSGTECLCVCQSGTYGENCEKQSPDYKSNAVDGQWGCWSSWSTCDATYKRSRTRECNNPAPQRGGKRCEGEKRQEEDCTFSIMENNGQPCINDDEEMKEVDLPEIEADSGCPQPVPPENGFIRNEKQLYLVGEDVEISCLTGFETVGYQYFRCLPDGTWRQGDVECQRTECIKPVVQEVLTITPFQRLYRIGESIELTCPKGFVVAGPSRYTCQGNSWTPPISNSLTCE
C6Δ634: 1-634_10xHis (human), sequence (P13671 22-634, stated change not applied): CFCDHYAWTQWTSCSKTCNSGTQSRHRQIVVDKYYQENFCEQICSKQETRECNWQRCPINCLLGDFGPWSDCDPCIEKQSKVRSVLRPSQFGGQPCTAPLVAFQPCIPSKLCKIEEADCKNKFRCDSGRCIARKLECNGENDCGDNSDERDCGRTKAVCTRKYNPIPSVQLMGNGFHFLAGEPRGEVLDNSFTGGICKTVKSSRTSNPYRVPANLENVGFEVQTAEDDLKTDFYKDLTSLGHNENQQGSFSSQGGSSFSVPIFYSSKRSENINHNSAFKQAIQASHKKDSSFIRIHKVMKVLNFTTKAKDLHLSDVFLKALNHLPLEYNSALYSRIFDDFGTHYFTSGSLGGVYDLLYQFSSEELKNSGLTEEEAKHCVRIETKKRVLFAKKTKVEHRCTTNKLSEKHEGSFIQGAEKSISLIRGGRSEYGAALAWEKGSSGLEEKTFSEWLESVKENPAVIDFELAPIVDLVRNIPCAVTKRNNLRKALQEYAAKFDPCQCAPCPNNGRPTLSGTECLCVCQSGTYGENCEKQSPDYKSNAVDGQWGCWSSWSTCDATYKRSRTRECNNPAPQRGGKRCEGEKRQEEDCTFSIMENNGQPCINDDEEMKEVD
human complement protein C6 (human), sequence (P13671 22-934 limits assumed): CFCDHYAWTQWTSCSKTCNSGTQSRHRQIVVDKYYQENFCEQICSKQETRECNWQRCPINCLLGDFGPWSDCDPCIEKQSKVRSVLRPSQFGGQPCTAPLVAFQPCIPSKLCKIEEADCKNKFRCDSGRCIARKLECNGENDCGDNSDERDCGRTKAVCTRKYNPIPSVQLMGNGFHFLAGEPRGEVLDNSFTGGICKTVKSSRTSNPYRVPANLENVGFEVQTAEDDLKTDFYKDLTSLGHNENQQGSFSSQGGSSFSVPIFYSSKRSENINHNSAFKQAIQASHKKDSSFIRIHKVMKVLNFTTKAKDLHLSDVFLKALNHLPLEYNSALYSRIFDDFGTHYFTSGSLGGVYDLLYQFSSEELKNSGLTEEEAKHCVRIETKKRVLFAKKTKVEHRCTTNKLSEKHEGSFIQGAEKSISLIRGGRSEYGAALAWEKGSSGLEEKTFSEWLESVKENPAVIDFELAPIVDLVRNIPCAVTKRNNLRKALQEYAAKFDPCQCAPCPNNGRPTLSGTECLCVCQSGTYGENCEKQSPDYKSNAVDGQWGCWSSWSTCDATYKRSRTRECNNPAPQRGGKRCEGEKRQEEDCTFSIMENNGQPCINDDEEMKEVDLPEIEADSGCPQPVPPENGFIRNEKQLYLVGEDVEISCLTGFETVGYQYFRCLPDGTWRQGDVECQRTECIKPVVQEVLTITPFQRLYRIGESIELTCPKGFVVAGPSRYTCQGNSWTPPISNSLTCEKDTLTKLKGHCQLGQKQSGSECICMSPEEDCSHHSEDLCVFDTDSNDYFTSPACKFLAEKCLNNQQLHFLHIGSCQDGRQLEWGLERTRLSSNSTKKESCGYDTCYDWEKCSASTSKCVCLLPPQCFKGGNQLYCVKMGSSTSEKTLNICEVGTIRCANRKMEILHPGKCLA
C6 no His (human), sequence (P13671 22-934 limits assumed): as above
C6: 1-934_10xHis (human), sequence (P13671 22-934): as the sequence (P13671 22-934 limits assumed) above

As to mIgG (antibody), the ELISA plate reading (no name or unit printed) in experiment [1] was found to be 0.0648; in experiment [2] it was 0.0472; with C6: 1-934_10xHis (human) [3], 0.0481; in experiment [4] it was 0.0935; with C6 no His (human) [5], 0.115; in experiment [6], 0.0623. Moreover, the ELISA plate reading (no name or unit printed) in experiment [7] is 0.0441; in the experiment with C6: 1-934_10xHis (human) [8], 0.0472; in [9], 0.0811; in experiment [10] it was 0.0666; in experiment [11], 0.0728; in [12], 0.0429. The ELISA plate reading (no name or unit printed) with C6 no His (human) [13] amounted to 0.0488; in [14], 0.0413.
